{"source": "paper PMC3433420", "origin": "cited, not measured here", "conditions_in_all_cases": "cited from earlier work", "key": {"[1]": {"target": "SYK-NC (Homo sapiens) (UniProt P43405)"}, "[2]": {"target": "GRB7 (Homo sapiens) (UniProt Q14451)", "sequence (Q14451 426-532)": "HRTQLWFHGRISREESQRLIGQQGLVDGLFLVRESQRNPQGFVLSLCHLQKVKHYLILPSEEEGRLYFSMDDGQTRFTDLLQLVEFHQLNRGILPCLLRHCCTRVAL"}, "[3]": {"target": "PIK3R1-N (Homo sapiens) (UniProt P27986)", "sequence (P27986 328-723)": "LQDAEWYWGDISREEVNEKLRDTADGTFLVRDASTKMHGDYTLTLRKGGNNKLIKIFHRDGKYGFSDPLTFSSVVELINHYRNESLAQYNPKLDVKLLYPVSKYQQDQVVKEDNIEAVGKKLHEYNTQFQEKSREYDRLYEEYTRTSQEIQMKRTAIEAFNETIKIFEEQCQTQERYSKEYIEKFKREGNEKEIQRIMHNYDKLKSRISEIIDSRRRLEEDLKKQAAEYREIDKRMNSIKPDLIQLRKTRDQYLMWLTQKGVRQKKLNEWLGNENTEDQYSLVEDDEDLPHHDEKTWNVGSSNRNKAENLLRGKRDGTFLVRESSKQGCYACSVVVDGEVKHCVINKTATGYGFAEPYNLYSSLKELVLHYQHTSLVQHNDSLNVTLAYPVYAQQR"}, "[4]": {"target": "SLA (Homo sapiens) (UniProt Q13239)", "sequence (Q13239 79-180)": "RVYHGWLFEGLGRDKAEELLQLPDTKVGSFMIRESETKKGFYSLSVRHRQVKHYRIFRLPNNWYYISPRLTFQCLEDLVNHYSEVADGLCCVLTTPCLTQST"}, "[5]": {"target": "ABL2 (Homo sapiens) (UniProt P42684)", "sequence (P42684 168-268)": "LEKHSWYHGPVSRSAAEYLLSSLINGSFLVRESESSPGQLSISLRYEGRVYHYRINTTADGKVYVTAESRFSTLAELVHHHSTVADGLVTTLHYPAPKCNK"}, "[6]": {"target": "PIK3R3-NC (Homo sapiens) (UniProt Q92569)"}, "[7]": {"target": "PIK3R3-NC (Homo sapiens) (UniProt Q92569)", "remark": "listed apart in the source"}, "[8]": {"target": "RASA1-N (Homo sapiens) (UniProt P20936)", "sequence (P20936 176-446)": "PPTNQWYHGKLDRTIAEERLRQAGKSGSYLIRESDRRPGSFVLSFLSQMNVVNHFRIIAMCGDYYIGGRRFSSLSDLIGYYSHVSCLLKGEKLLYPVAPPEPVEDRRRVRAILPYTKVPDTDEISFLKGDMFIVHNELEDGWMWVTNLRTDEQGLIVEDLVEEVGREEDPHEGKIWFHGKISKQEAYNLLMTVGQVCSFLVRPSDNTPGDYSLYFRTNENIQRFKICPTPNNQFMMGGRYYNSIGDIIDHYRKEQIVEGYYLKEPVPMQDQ"}, "[9]": {"target": "TENC1 (Homo sapiens) (UniProt Q63HR2)", "sequence (Q63HR2 1135-1252)": "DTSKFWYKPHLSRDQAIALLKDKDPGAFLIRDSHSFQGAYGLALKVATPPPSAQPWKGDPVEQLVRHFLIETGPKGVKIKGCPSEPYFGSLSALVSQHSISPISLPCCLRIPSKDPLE"}, "[10]": {"target": "TENC1 (Homo sapiens) (UniProt Q63HR2)", "remark": "listed apart in the source"}, "[11]": {"target": "PIK3R1-NC (Homo sapiens) (UniProt P27986)", "sequence (P27986 328-723)": "as the sequence (P27986 328-723) above"}, "[12]": {"target": "PIK3R1-NC (Homo sapiens) (UniProt P27986)", "remark": "listed apart in the source"}, "[13]": {"target": "PIK3R3-N (Homo sapiens) (UniProt Q92569)"}, "[14]": {"target": "PIK3R3-N (Homo sapiens) (UniProt Q92569)", "remark": "listed apart in the source"}, "[15]": {"target": "PIK3R2-NC (Homo sapiens) (UniProt O00459)", "sequence (O00459 325-721)": "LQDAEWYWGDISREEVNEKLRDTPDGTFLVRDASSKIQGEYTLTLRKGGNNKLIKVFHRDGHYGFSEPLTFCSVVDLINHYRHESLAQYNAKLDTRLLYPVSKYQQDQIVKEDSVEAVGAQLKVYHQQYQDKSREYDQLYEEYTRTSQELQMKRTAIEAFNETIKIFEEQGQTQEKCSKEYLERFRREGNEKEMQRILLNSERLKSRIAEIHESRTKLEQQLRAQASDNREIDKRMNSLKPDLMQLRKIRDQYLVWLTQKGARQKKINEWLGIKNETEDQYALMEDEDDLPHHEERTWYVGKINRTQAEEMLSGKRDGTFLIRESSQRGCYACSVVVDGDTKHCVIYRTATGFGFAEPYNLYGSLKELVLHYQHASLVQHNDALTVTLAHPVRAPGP"}, "[16]": {"target": "PIK3R2-N (Homo sapiens) (UniProt O00459)", "sequence (O00459 325-721)": "as above"}, "[17]": {"target": "PIK3R2-N (Homo sapiens) (UniProt O00459)", "remark": "listed apart in the source"}, "[18]": {"target": "PIK3R3-C (Homo sapiens) (UniProt Q92569)"}, "[19]": {"target": "SYK-NC (Homo sapiens) (UniProt P43405)", "remark": "listed apart in the source"}, "[20]": {"target": "GRB7 (Homo sapiens) (UniProt Q14451)", "remark": "listed apart in the source"}, "[21]": {"target": "SLA (Homo sapiens) (UniProt Q13239)", "remark": "listed apart in the source"}, "[22]": {"target": "BLK (Homo sapiens) (UniProt P51451)", "sequence (P51451 119-225)": "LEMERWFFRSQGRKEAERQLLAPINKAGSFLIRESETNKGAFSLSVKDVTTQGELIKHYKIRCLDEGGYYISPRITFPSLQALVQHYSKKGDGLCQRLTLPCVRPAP"}, "[23]": {"target": "ITK (Homo sapiens) (UniProt Q08881)", "sequence (Q08881 234-343)": "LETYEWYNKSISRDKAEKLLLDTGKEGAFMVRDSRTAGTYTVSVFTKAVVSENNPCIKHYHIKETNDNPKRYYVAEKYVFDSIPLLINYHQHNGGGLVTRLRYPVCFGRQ"}, "[24]": {"target": "ABL2 (Homo sapiens) (UniProt P42684)", "remark": "listed apart in the source"}, "[25]": {"target": "ABL2 (Homo sapiens) (UniProt P42684)", "remark": "listed apart in the source"}, "[26]": {"target": "TNS4 (Homo sapiens) (UniProt Q8IZW8)", "sequence (Q8IZW8 444-561)": "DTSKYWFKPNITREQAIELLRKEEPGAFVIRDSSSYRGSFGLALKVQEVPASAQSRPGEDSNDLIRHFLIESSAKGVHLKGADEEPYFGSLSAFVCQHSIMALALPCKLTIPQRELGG"}, "[27]": {"target": "SH2B3 (Homo sapiens) (UniProt Q9UQQ2)", "sequence (Q9UQQ2 359-467)": "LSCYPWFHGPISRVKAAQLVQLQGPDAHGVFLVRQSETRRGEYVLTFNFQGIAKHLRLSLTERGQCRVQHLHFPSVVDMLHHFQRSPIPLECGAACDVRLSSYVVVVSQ"}, "[28]": {"target": "PLCG2-NC (Homo sapiens) (UniProt P16885)", "sequence (P16885 527-740)": "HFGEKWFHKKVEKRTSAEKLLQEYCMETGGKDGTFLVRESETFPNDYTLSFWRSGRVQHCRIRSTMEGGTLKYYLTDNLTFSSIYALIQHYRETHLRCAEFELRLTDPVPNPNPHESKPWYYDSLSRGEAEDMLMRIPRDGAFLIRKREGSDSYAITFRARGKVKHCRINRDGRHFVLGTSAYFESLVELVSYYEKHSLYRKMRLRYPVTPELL"}, "[29]": {"target": "PLCG2-NC (Homo sapiens) (UniProt P16885)", "remark": "listed apart in the source"}, "[30]": {"target": "PIK3R3-NC (Homo sapiens) (UniProt Q92569)", "remark": "listed apart in the source"}, "[31]": {"target": "SOCS2 (Homo sapiens) (UniProt O14508)", "sequence (O14508 43-161)": "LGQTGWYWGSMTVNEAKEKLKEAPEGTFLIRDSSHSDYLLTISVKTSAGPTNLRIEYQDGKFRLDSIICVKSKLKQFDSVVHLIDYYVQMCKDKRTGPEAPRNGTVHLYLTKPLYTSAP"}, "[32]": {"target": "RASA1-N (Homo sapiens) (UniProt P20936)", "remark": "listed apart in the source"}, "[33]": {"target": "RASA1-N (Homo sapiens) (UniProt P20936)", "remark": "listed apart in the source"}, "[34]": {"target": "SOCS1 (Homo sapiens) (UniProt O15524)", "sequence (O15524 74-179)": "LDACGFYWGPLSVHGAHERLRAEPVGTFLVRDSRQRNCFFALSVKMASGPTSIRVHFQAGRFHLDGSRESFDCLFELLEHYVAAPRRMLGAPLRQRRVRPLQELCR"}, "[35]": {"target": "SH2D2A (Homo sapiens) (UniProt Q9NP31)", "sequence (Q9NP31 90-191)": "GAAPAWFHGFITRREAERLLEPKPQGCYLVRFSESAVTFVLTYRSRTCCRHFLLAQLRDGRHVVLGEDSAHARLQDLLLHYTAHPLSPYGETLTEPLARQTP"}, "[36]": {"target": "ZAP70-NC (Homo sapiens) (UniProt P43403)", "sequence (P43403 5-259)": "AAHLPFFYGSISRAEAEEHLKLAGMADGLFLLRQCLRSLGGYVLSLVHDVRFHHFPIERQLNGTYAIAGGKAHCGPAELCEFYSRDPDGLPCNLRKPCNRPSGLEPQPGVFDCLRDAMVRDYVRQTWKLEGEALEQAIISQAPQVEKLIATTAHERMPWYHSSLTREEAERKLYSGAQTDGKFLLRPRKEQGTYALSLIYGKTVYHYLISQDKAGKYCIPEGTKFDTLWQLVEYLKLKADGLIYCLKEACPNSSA"}, "[37]": {"target": "SH2B (Homo sapiens) (UniProt Q9NRF2)"}, "[38]": {"target": "PIK3R1-NC (Homo sapiens) (UniProt P27986)", "remark": "listed apart in the source"}, "[39]": {"target": "GRB10 (Homo sapiens) (UniProt Q13322)", "sequence (Q13322 488-579)": "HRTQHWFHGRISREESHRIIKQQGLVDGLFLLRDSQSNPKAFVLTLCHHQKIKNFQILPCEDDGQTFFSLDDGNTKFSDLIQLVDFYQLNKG"}, "[40]": {"target": "GRB10 (Homo sapiens) (UniProt Q13322)", "remark": "listed apart in the source"}, "[41]": {"target": "FES (Homo sapiens) (UniProt P07332)", "sequence (P07332 455-554)": "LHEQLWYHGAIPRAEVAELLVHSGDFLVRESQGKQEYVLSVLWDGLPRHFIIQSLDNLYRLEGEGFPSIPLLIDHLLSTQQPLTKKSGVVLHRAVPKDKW"}, "[42]": {"target": "SRC (Homo sapiens) (UniProt P12931)"}, "[43]": {"target": "PTPN6-NC (Homo sapiens) (UniProt P29350)", "sequence (P29350 1-218)": "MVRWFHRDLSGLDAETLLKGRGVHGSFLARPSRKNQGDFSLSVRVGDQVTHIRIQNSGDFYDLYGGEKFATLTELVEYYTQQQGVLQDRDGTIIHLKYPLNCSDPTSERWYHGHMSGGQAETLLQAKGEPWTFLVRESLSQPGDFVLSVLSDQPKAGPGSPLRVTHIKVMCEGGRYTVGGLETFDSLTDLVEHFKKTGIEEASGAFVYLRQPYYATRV"}, "[44]": {"target": "SHC1-PTB (Homo sapiens) (UniProt P29353)", "sequence (P29353 483-583)": "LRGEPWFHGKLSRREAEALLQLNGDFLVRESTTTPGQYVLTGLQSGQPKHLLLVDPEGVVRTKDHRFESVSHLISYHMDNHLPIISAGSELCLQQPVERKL"}, "[45]": {"target": "YES1 (Homo sapiens) (UniProt P07947)", "sequence (P07947 153-260)": "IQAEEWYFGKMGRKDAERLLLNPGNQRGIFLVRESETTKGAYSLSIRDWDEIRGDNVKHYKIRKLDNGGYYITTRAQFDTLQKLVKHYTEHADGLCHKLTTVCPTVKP"}, "[46]": {"target": "SHC2-PTB (Homo sapiens) (UniProt P98077)", "sequence (P98077 482-582)": "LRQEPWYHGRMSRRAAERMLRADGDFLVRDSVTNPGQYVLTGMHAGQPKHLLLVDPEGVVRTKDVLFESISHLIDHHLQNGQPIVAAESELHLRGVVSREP"}, "[47]": {"target": "SH2D3C (Homo sapiens) (UniProt Q8N5H7)", "sequence (Q8N5H7 215-324)": "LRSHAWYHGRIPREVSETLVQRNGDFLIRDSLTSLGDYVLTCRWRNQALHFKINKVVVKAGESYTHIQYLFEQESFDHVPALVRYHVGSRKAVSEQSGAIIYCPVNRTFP"}, "[48]": {"target": "RASA1-NC (Homo sapiens) (UniProt P20936)", "sequence (P20936 176-446)": "as the sequence (P20936 176-446) above"}, "[49]": {"target": "RASA1-NC (Homo sapiens) (UniProt P20936)", "remark": "listed apart in the source"}, "[50]": {"target": "LCK (Homo sapiens) (UniProt P06239)", "sequence (P06239 122-229)": "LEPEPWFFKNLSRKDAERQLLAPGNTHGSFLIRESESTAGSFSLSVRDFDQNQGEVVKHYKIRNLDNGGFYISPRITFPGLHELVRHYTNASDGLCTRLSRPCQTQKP"}}, "note": "Where two headings read alike, the source gives them in different places.", "data": [{"substance": "…pYEYMNRQR", "values": [{"measurement": "apparent Kd (screen)", "setting": "[1]", "result": 1300, "unit": "nM"}, {"measurement": "apparent Kd (screen)", "setting": "[2]", "result": 999, "unit": "nM"}, {"measurement": "apparent Kd (screen)", "setting": "[3]", "result": 296, "unit": "nM"}, {"measurement": "apparent Kd (screen)", "setting": "[4]", "result": 2000, "unit": "nM"}, {"measurement": "apparent Kd (screen)", "setting": "[5]", "result": 357, "unit": "nM"}, {"measurement": "apparent Kd (screen)", "setting": "[6]", "result": 151, "unit": "nM"}, {"measurement": "apparent Kd (screen)", "setting": "[7]", "result": 122, "unit": "nM"}, {"measurement": "apparent Kd (screen)", "setting": "[8]", "result": 1040, "unit": "nM"}, {"measurement": "apparent Kd (screen)", "setting": "[9]", "result": 1710, "unit": "nM"}, {"measurement": "apparent Kd (screen)", "setting": "[10]", "result": 1620, "unit": "nM"}, {"measurement": "apparent Kd (screen)", "setting": "[11]", "result": 33, "unit": "nM"}, {"measurement": "apparent Kd (screen)", "setting": "[12]", "result": 43, "unit": "nM"}, {"measurement": "apparent Kd (screen)", "setting": "[13]", "result": 157, "unit": "nM"}, {"measurement": "apparent Kd (screen)", "setting": "[14]", "result": 171, "unit": "nM"}, {"measurement": "apparent Kd (screen)", "setting": "[15]", "result": 99, "unit": "nM"}, {"measurement": "apparent Kd (screen)", "setting": "[16]", "result": 151, "unit": "nM"}, {"measurement": "apparent Kd (screen)", "setting": "[17]", "result": 199, "unit": "nM"}, {"measurement": "apparent Kd (screen)", "setting": "[18]", "result": 130, "unit": "nM"}]}, {"substance": "…pYRALMDEEd", "values": [{"measurement": "apparent Kd (screen)", "setting": "[19]", "result": 905, "unit": "nM"}, {"measurement": "apparent Kd (screen)", "setting": "[20]", "result": 755, "unit": "nM"}, {"measurement": "apparent Kd (screen)", "setting": "[21]", "result": 1600, "unit": "nM"}, {"measurement": "apparent Kd (screen)", "setting": "[22]", "result": 191, "unit": "nM"}, {"measurement": "apparent Kd (screen)", "setting": "[23]", "result": 277, "unit": "nM"}, {"measurement": "apparent Kd (screen)", "setting": "[24]", "result": 1500, "unit": "nM"}, {"measurement": "apparent Kd (screen)", "setting": "[25]", "result": 2000, "unit": "nM"}, {"measurement": "apparent Kd (screen)", "setting": "[26]", "result": 2000, "unit": "nM"}, {"measurement": "apparent Kd (screen)", "setting": "[27]", "result": 1360, "unit": "nM"}, {"measurement": "apparent Kd (screen)", "setting": "[28]", "result": 1390, "unit": "nM"}, {"measurement": "apparent Kd (screen)", "setting": "[29]", "result": 1500, "unit": "nM"}, {"measurement": "apparent Kd (screen)", "setting": "[30]", "result": 968, "unit": "nM"}, {"measurement": "apparent Kd (screen)", "setting": "[31]", "result": 2000, "unit": "nM"}, {"measurement": "apparent Kd (screen)", "setting": "[32]", "result": 709, "unit": "nM"}, {"measurement": "apparent Kd (screen)", "setting": "[33]", "result": 1060, "unit": "nM"}, {"measurement": "apparent Kd (screen)", "setting": "[34]", "result": 2000, "unit": "nM"}, {"measurement": "apparent Kd (screen)", "setting": "[35]", "result": 2000, "unit": "nM"}, {"measurement": "apparent Kd (screen)", "setting": "[36]", "result": 1650, "unit": "nM"}, {"measurement": "apparent Kd (screen)", "setting": "[37]", "result": 2000, "unit": "nM"}, {"measurement": "apparent Kd (screen)", "setting": "[38]", "result": 239, "unit": "nM"}, {"measurement": "apparent Kd (screen)", "setting": "[39]", "result": 1690, "unit": "nM"}, {"measurement": "apparent Kd (screen)", "setting": "[40]", "result": 2000, "unit": "nM"}, {"measurement": "apparent Kd (screen)", "setting": "[41]", "result": 1230, "unit": "nM"}, {"measurement": "apparent Kd (screen)", "setting": "[42]", "result": 1140, "unit": "nM"}, {"measurement": "apparent Kd (screen)", "setting": "[43]", "result": 2000, "unit": "nM"}, {"measurement": "apparent Kd (screen)", "setting": "[44]", "result": 1150, "unit": "nM"}, {"measurement": "apparent Kd (screen)", "setting": "[45]", "result": 724, "unit": "nM"}, {"measurement": "apparent Kd (screen)", "setting": "[46]", "result": 978, "unit": "nM"}, {"measurement": "apparent Kd (screen)", "setting": "[47]", "result": 2000, "unit": "nM"}, {"measurement": "apparent Kd (screen)", "setting": "[48]", "result": 1650, "unit": "nM"}, {"measurement": "apparent Kd (screen)", "setting": "[49]", "result": 1380, "unit": "nM"}, {"measurement": "apparent Kd (screen)", "setting": "[50]", "result": 2000, "unit": "nM"}]}]}
